The values below are quoted from earlier work in publication PMC5672955.

By Kd is commonly meant the concentration at which binding is half-saturated.

This data set has as its target RNA polymerase (Escherichia coli) (UniProt P0A7Z4).

UvrD, sequence (P03018 whole entry): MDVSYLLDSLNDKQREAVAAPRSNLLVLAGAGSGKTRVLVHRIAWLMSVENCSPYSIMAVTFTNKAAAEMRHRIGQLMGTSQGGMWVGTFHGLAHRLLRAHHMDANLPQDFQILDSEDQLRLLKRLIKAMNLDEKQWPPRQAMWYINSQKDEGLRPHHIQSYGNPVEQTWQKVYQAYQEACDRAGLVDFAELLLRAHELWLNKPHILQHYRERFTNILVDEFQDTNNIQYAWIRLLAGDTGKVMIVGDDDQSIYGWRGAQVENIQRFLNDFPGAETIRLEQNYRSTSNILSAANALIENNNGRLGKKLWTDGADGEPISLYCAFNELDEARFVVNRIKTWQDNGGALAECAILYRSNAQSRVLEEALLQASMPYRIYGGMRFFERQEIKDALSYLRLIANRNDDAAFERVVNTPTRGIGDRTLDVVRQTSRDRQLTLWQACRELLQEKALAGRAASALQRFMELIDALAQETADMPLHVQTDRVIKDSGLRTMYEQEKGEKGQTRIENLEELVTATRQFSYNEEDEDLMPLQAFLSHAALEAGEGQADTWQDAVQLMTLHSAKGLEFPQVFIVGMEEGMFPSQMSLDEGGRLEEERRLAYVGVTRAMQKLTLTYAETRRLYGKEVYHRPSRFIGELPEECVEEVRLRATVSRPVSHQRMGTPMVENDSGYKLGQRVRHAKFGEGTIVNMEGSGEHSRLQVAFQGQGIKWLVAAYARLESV

Turning to UvrD (from UniProt P03018), the Kd is 35 nM.
